The assay has as its target T1, His-tagged recombinant human glycyl-tRNA synthetase (GRS), 685 amino acids (human, UniProt P41250 55-739).
T1 construct: Expressed in E. coli; also called His-GRS; his-tagged GRS; not shown: His tag from vector pET-28a (EcoRI/XhoI)
T1 sequence: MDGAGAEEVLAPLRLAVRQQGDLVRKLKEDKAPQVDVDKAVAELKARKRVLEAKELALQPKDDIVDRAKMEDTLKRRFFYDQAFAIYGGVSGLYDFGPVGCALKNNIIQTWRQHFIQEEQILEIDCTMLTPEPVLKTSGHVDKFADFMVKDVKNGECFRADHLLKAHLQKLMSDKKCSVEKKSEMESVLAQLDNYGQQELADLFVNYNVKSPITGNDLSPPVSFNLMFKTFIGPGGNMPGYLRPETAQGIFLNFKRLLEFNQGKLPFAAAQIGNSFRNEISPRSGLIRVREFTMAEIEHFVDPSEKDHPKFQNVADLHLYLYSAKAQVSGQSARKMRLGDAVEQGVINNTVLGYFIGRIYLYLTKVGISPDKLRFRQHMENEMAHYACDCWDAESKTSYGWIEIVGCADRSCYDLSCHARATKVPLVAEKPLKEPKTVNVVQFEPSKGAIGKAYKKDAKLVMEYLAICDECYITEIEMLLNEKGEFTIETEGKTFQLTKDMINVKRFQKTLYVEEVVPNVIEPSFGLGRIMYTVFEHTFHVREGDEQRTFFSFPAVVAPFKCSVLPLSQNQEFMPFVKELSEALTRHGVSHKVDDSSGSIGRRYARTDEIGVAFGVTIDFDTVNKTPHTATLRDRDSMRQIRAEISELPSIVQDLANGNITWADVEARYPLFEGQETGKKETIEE
The assay is described as follows: ELISA: plate coated with His-GRS or BSA, Fc-fused cadherin added, detected with anti-human IgG1 Fc-HRP; axis OD 490nm. How it is done:
(A) A panel of Fc-fused soluble cadherin family proteins was bound to His-tagged GRS or to BSA-coated plates, and complexes were detected with the IgG1 Fc-HRP (Thermo) reagent. (B) To confirm the binding between cadherins and GRS, Fc-CDH2, 6 and 18 were incubated with His-GRS. Fc-CDHs were precipitated with protein A/G agarose and co-precipitated GRS was determined by immunoblotting. (C) To calculate the equilibrium dissociation constant (IQ), immobilized Fc-fused (to gold chips) cadherins were incubated with GRS (31.25 nM˜1 uM). Binding of GRS to CDH6 was determined by surface plasmon resonance and expressed as resonance units (RU). (D) To confirm the binding between CDH6 and GRS domain peptides, Fc-CDH6 was incubated with different domains (F1, 2, 3 and 4) of GRS that were expressed as the GST fusion proteins. GST-GRS proteins were precipitated with GSH-sepharose beads and co-precipitated CDH6 was determined by immunoblotting. (E) Five difference cancers cells were determined for the expression of CDH6 by immunoblotting. (F) HCT116 cells were transfected with non-specific siRNA controls (si-con) or two differently designed siRNAs targeting CDH6 (#1 and #2), treated with biotinylated GRS (15 nM), and the binding of GRS was analyzed by immunoblotting. (G) HCT116 cells were transfected with si-con and si-CDH6 as described above, and cell binding of GRS was measured by FACS analysis. (H) HCT116 cells were incubated with His-GRS (150 nM). To neutralize the effects of GRS, Fc-fused CDH6 (300 nM) was added and the cell viability was determined by the MTT assay. Error bars represent standard deviation. (I) The binding between CDH6 and GRS domain peptides was again confirmed by ELISA assay.
To identifying the receptor of GRS, a Maxisorp plate (Nunc, Rochester, N.Y.) was used for an ELISA detection. The plate were coated with purified his-tagged GRS (1 ug/ml) or BSA (1 ug/ml) in phosphate buffer saline and then blocked (PBS, 4% non-fat milk). Fc-fusion cadherin family proteins (1 ug/ml) were added to the plate and after washing with PBST (0.05% Tween20), the plates were incubated with anti-human IgG1 Fc-HRP (Thermo, Waltham, Mass.). […]
A general note: In an ELISA, binding on a coated surface is turned into a signal by an enzyme label.

B1: CDH1 (Fc fusion, not shown: a dimerising Fc or GST; small tags and cut ends)
chain: DWVIPPISCPENEKGPFPKNLVQIKSNKDKEGKVFYSITGQGADTPPVGVFIIERETGWLKVTEPLDRERIATYTLFSHAVSSNGNAVEDPMEILITVTDQNDNKPEFTQEVFKGSVMEGALPGTSVMEVTATDADDDVNTYNAAIAYTILSQDPELPDKNMFTINRNTGVISVVTTGLDRESFPTYTLVVQAADLQGEGLSTTATAVITVTDTNDNPPIFNPTTYKGQVPENEANVVITTLKVTDADAPNTPAWEAVYTILNDDGGQFVVTTNPVNNDGILKTAKGLDFEAKQQYILHVAVTNVVPFEVSLTTSTATVTVDVLDVNEAPIFVPPEKRVEVSEDFGVGQEITSYTAQEPDTFMEQKITYRIWRDTANWLEINPDTGAISTRAELDREDFEHVKNSTYTALIIATDNGSPVATGTGTLLLILSDVNDNAPIPEPRTIFFCERNPKPQVINIIDADLPPNTSPFTAELTHGASANWTIQYNDPTQESIILKPKMALEVGDYKINLKLMDNQNKDQVTTLEVSVCDCEGAAGVCRKAQPVEAGLQIPA
notes: one of the remaining CDHs (group m5); also called Fc-CDH1; Fc-fused soluble cadherin-1
Take B1: the binding result is recorded as “no binding (tested: 1 ug/ml (single concentration))”.

B2: CDH20 (Fc fusion, not shown: a dimerising Fc or GST; small tags and cut ends)
chain: SWVWNQFFVLEEYTGTDPLYVGKLHSDMDRGDGSIKYILSGEGAGIVFTIDDTTGDIHAIQRLDREERAQYTLRAQALDRRTGRPMEPESEFIIKIQDINDNEPKFLDGPYVATVPEMSPVGTSVIQVTATDADDPTYGNSARVVYSILQGQPYFSVDSKTGVIRTALMNMDREAKEYYEVIIQAKDMGGQLGGLAGTTTVNITLSDVNDNPPRFPQKHYQMSVLESAPISSTVGRVFAKDLDEGINAEMKYTIVDGDGADAFDISTDPNFQVGIITVKKPLSFESKKSYTLKVEGANPHLEMRFLNLGPFQDTTTVHISVEDVDEPPVFEPGFYFVEVPEDVAIGTTIQIISAKDPDVTNNSIRYSIDRSSDPGRFFYVDITTGALMTARPLDREEFSWHNITVLAMEMNNPSQVGSVPVTIKVLDVNDNAPEFPRFYEAFVCENAKAGQLIQTVSAVDQDDPRNGQHFYYSLAPEAANNPNFTIRDNQDNTARILTRRSGFRQQEQSVFHLPILIADSGQPVLSSTGTLTIQVCSCDDDGHVMSCSPEAYMLPVSLSR
notes: one of the remaining CDHs (group m5); also called Fc-CDH20; Fc-fused soluble cadherin-20
As for B2, the binding result is “no binding (tested: 1 ug/ml (single concentration))”.

B3: CDH11 (Fc fusion, not shown: a dimerising Fc or GST; small tags and cut ends)
chain: GWVWNQFFVIEEYTGPDPVLVGRLHSDIDSGDGNIKYILSGEGAGTIFVIDDKSGNIHATKTLDREERAQYTLMAQAVDRDTNRPLEPPSEFIVKVQDINDNPPEFLHETYHANVPERSNVGTSVIQVTASDADDPTYGNSAKLVYSILEGQPYFSVEAQTGIIRTALPNMDREAKEEYHVVIQAKDMGGHMGGLSGTTKVTITLTDVNDNPPKFPQSVYQMSVSEAAVPGEEVGRVKAKDPDIGENGLVTYNIVDGDGMESFEITTDYETQEGVIKLKKPVDFETKRAYSLKVEAANVHIDPKFISNGPFKDTVTVKISVEDADEPPMFLAPSYIHEVQENAAAGTVVGRVHAKDPDAANSPIRYSIDRHTDLDRFFTINPEDGFIKTTKPLDREETAWLNITVFAAEIHNRHQEAKVPVAIRVLDVNDNAPKFAAPYEGFICESDQTKPLSNQPIVTISADDKDDTANGPRFIFSLPPEIIHNPNFTVRDNRDNTAGVYARRGGFSRQKQDLYLLPIVISDGGIPPMSSTNTLTIKVCGCDVNGALLSCNAEAYILNAGLST
notes: one of the remaining CDHs (group m5); also called Fc-CDH11; Fc-fused soluble cadherin-11
As to B3, the binding result is listed as “no binding (tested: 1 ug/ml (single concentration))”.

B4: CDH8 (Fc fusion, not shown: a dimerising Fc or GST; small tags and cut ends)
chain: GWVWNQMFVLEEFSGPEPILVGRLHTDLDPGSKKIKYILSGDGAGTIFQINDVTGDIHAIKRLDREEKAEYTLTAQAVDWETSKPLEPPSEFIIKVQDINDNAPEFLNGPYHATVPEMSILGTSVTNVTATDADDPVYGNSAKLVYSILEGQPYFSIEPETAIIKTALPNMDREAKEEYLVVIQAKDMGGHSGGLSGTTTLTVTLTDVNDNPPKFAQSLYHFSVPEDVVLGTAIGRVKANDQDIGENAQSSYDIIDGDGTALFEITSDAQAQDGIIRLRKPLDFETKKSYTLKVEAANVHIDPRFSGRGPFKDTATVKIVVEDADEPPVFSSPTYLLEVHENAALNSVIGQVTARDPDITSSPIRFSIDRHTDLERQFNINADDGKITLATPLDRELSVWHNITIIATEIRNHSQISRVPVAIKVLDVNDNAPEFASEYEAFLCENGKPGQVIQTVSAMDKDDPKNGHYFLYSLLPEMVNNPNFTIKKNEDNSLSILAKHNGFNRQKQEVYLLPIIISDSGNPPLSSTSTLTIRVCGCSNDGVVQSCNVEAYVLPIGLSM
notes: one of the remaining CDHs (group m5); also called Fc-CDH8; Fc-fused soluble cadherin-8
Turning to B4, the binding result is “no binding (tested: 1 ug/ml (single concentration))”.

B5: CDH5 (Fc fusion, not shown: a dimerising Fc or GST; small tags and cut ends)
chain: DWIWNQMHIDEEKNTSLPHHVGKIKSSVSRKNAKYLLKGEYVGKVFRVDAETGDVFAIERLDRENISEYHLTAVIVDKDTGENLETPSSFTIKVHDVNDNWPVFTHRLFNASVPESSAVGTSVISVTAVDADDPTVGDHASVMYQILKGKEYFAIDNSGRIITITKSLDREKQARYEIVVEARDAQGLRGDSGTATVLVTLQDINDNFPFFTQTKYTFVVPEDTRVGTSVGSLFVEDPDEPQNRMTKYSILRGDYQDAFTIETNPAHNEGIIKPMKPLDYEYIQQYSFIVEATDPTIDLRYMSPPAGNRAQVIINITDVDEPPIFQQPFYHFQLKENQKKPLIGTVLAMDPDAARHSIGYSIRRTSDKGQFFRVTKKGDIYNEKELDREVYPWYNLTVEAKELDSTGTPTGKESIVQVHIEVLDENDNAPEFAKPYQPKVCENAVHGQLVLQISAIDKDITPRNVKFKFILNTENNFTLTDNHDNTANITVKYGQFDREHTKVHFLPVVISDNGMPSRTGTSTLTVAVCKCNEQGEFTFCEDMAAQVGVSIQ
notes: one of the remaining CDHs (group m5); also called Fc-CDH5; Fc-fused soluble cadherin-5
For the molecule B5, the binding result is reported as “no binding (tested: 1 ug/ml (single concentration))”.

B6: CDH16 (Fc fusion, not shown: a dimerising Fc or GST; small tags and cut ends)
chain: KAQPAELSVEVPENYGGNFPLYLTKLPLPREGAEGQIVLSGDSGKATEGPFAMDPDSGFLLVTRALDREEQAEYQLQVTLEMQDGHVLWGPQPVLVHVKDENDQVPHFSQAIYRARLSRGTRPGIPFLFLEASDRDEPGTANSDLRFHILSQAPAQPSPDMFQLEPRLGALALSPKGSTSLDHALERTYQLLVQVKDMGDQASGHQATATVEVSIIESTWVSLEPIHLAENLKVLYPHHMAQVHWSGGDVHYHLESHPPGPFEVNAEGNLYVTRELDREAQAEYLLQVRAQNSHGEDYAAPLELHVLVMDENDNVPICPPRDPTVSIPELSPPGTEVTRLSAEDADAPGSPNSHVVYQLLSPEPEDGVEGRAFQVDPTSGSVTLGVLPLRAGQNILLLVLAMDLAGAEGGFSSTCEVEVAVTDINDHAPEFITSQIGPISLPEDVEPGTLVAMLTAIDADLEPAFRLMDFAIERGDTEGTFGLDWEPDSGHVRLRLCKNLSYEAAPSHEVVVVVQSVAKLVGPGPGPGATATVTVLVERVMPPPKLDQESYEASVPISAPAGSFLLTIQPSDPISRTLRFSLVNDSEGWLCIEKFSGEVHTAQSLQGAQPGDTYTVLVEAQDTDEPRLSASAPLVIHFLKAPPAPALTLAPVPSQYLCTPRQDHGLIVSGPSKDPDLASGHGPYSFTLGPNPTVQRDWRLQTLNGSHAYLTLALHWVEPREHIIPVVVSHNAQMWQLLVRVIVCRCNVEGQCMRKVGRMKGMPTKLSA
notes: one of the remaining CDHs (group m5); also called Fc-CDH16; Fc-fused soluble cadherin-16
On to B6, for which the binding result was “no binding (tested: 1 ug/ml (single concentration))”.

B7: CDH13 (Fc fusion, not shown: a dimerising Fc or GST; small tags and cut ends)
chain: SIVVSPILIPENQRQPFPRDVGKVVDSDRPERSKFRLTGKGVDQEPKGIFRINENTGSVSVTRTLDREVIAVYQLFVETTDVNGKTLEGPVPLEVIVIDQNDNRPIFREGPYIGHVMEGSPTGTTVMRMTAFDADDPATDNALLRYNIRQQTPDKPSPNMFYIDPEKGDIVTVVSPALLDRETLENPKYELIIEAQDMAGLDVGLTGTATATIMIDDKNDHSPKFTKKEFQATVEEGAVGVIVNLTVEDKDDPTTGAWRAAYTIINGNPGQSFEIHTNPQTNEGMLSVVKPLDYEISAFHTLLIKVENEDPLVPDVSYGPSSTATVHITVLDVNEGPVFYPDPMMVTRQEDLSVGSVLLTVNATDPDSLQHQTIRYSVYKDPAGWLNINPINGTVDTTAVLDRESPFVDNSVYTALFLAIDSGNPPATGTGTLLITLEDVNDNAPFIYPTVAEVCDDAKNLSVVILGASDKDLHPNTDPFKFEIHKQAVPDKVWKISKINNTHALVSLLQNLNKANYNLPIMVTDSGKPPMTNITDLRVQVCSCRNSKVDCNAAG
notes: one of the remaining CDHs (group m5); also called Fc-CDH13; Fc-fused soluble cadherin-13
B7: the binding result is on record as “no binding (tested: 1 ug/ml (single concentration))”.

Values taken from US20140220596A1 (MEDICINAL BIOCONVERGENCE RESEARCH CENTER, published 2014).
